Consider one substance from US20250263675A1.

Bounds are passed on as bounds.

Broadly, the Kd is the concentration at which binding is half-saturated. By kon is commonly meant the second-order rate constant of association. By koff is commonly meant the rate constant with which the complex falls apart.

Assay [1] addresses recombinant human VEGF (R&D, 293-VE-010) (human) (UniProt P15692). In words: Octet HTX biosensor, 1x kinetics buffer; antibody at 10 ug/mL in buffer, recombinant human VEGF 200 nM to 3.125 nM.
Sequence of UniProt P15692 (P15692 other isoform, or with tags, fused parts or gaps limits assumed): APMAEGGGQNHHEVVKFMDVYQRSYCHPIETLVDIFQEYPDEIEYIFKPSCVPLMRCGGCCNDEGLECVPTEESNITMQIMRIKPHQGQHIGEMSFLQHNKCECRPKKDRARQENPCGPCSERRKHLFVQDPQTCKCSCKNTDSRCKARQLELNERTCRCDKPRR
The target is the same in assay [2]. Briefly: Octet HTX biosensor; antibody prepared in conditioned medium and diluted to 10 ug/mL in 1x kinetics buffer, recombinant human VEGF 200 nM to 3.125 nM. In general terms: BLI is a label-free optical method that tracks binding on a fibre tip over time.
The target is the same in assay [3]. In words: Octet HTX biolayer interferometry in 1x kinetics buffer; antibody at 10 ug/mL in buffer as loading sample, recombinant human VEGF 200 to 3.125 nM (data of FIG. 3A); ka Error printed 7.60E+02.
Assay [4] has the same target. In words: Octet HTX biolayer interferometry in 1x kinetics buffer; antibody at 10 ug/mL in buffer as loading sample, recombinant human VEGF 200 to 3.125 nM (data of FIG. 3A); kdis Error printed 1.34E-07.
Assay [5] shares this target. Briefly: Octet HTX biolayer interferometry; antibody prepared in conditioned medium at 100 ug/mL, diluted to 10 ug/mL in 1x kinetics buffer, as loading sample; recombinant human VEGF 200 to 3.125 nM (data of FIG. 3B); ka Error printed 8.54E+02.
For assay [6] the target is unchanged. Briefly: Octet HTX biolayer interferometry; antibody prepared in conditioned medium at 100 ug/mL, diluted to 10 ug/mL in 1x kinetics buffer, as loading sample; recombinant human VEGF 200 to 3.125 nM (data of FIG. 3B); kdis Error printed 1.27E-07.

As to “mouse anti-human VEGF monoclonal antibody (R&D, MAB293-100)”, the equilibrium dissociation constant (Kd) in assay [1] and in assay [2] was less than 1 pM each time. The kon is 232000 M⁻¹ s⁻¹ in assay [3] and 286000 M⁻¹ s⁻¹ in assay [5]. Besides, the koff in assay [4] and in assay [6] was less than 1e-07 s⁻¹ each time.
